Experimental data published in patent publication US20230039401A1, “COMPOSITIONS AND METHODS FOR TREATING NRP2-ASSOCIATED DISEASES” (aTyr Pharma, Inc., priority 2018, published 2023).

Tests used:
[1] = tested on: murine bone marrow derived macrophages; test: Efferocytosis in bone marrow derived macrophages (pHrodo-loaded apoptotic jurkat cells); format: cell-based, mouse; conditions: 100 nM for 5 days during monocyte differentiation
Text: This study was designed to investigate the in vivo potential of test compounds to modulate efferocytosis in murine bone marrow derived macrophages. Efferocytosis refers to the process by which dying/dead cells (e.g. apoptotic or necrotic cells) are removed by phagocytic cells. During efferocytosis, the cell membrane of phagocytic cells engulfs the apoptotic cell, forming a large fluid-filled vesicle containing the dead cell. Efferocytosis can be performed not only by ‘professional’ phagocytic cells such as macrophages or dendritic cells, but also by many other cell types including epithelial cells, fibroblasts and other cells. To distinguish them from living cells, apoptotic cells carry specific ‘eat me’ signals, such as the presence of phosphatidyl serine (resulting from phospholipid flip-flop) or calreticulin on the outer leaflet of the cell membrane. […] Like phagocytosis, acidification of the endosome, is a central aspect of endosome maturation, which can be readily monitored through the use of a pH sensitive probe, as described herein.
Methods and protocol. […] Confocal images were captured in Zeiss 710 Confocal Laser Scanning Microscope equipped with 4 lasers and images were captured and analyzed using Zeiss Zen 2010 software. For quantification, the intensity of red fluorescence in each field were measured and the arithmetic mean was calculated and represented graphically.

[2] = tested on: LPS-induced leukocyte infiltration into the mouse lung; test: Murine model of LPS-induced pulmonary inflammation; format: in vivo; conditions: single IV 3 mg/kg the day before LPS 10 μg/mouse; lavage 24 hours later
Text: This study was designed to investigate the in vivo potential of test compounds in a murine model of neutrophil accumulation in the lung induced by airway instillation of lipopolysaccharide (LPS).
Treatment Regimen. Sixty-four (64) C57BL/6 mice (Jackson Laboratory, Bar Harbor, Me., USA, 8 week old females) were assigned to study groups of 8 mice, and housed in specific pathogen-free conditions with sterile food and water.
In brief, animals received a single intravenous injection of the vehicle of Fc-HRS(2-60) (20 mM Histidine/125 mM NaCl/10 mM Methionine/3% Sucrose/0.02% PS20, pH 6.9), Fc-HRS(2-60) (1, 3, or 10 mg/kg), or HRS(2-60)-COMP (3 mg/kg). The following day, mice were anesthetized by isoflurane inhalation and, using a gavage needle and attached syringe, 50 μL of LPS (Sigma L3024, E. coli 0111-B4, 10 μg/mouse) formulated in PBS, or PBS alone, was delivered to the back of the oral soft palate for inhalation. […]
Flow Cytometry Analysis. […] NRP2 was detected by addition of 25 μL of rabbit anti-mouse NRP2 (Cell Signaling Technology) at 10 μg/mL in FWB for 1 h in the dark on ice, and cells were then washed (data not shown). […]
Using GraphPad Prism 7, results were analyzed by one-way ANOVA followed by Dunn's multiple comparison test using the LPS/Vehicle group as the comparator. […]

B1: HRS(2-60)-COMP: pentamer of HRS(2-60): HARS aa 2-60 fused to COMP pentameric domain (aa 28-73); made His tagged; SEQ ID NO:175 without tags (protein)
chain: ERAALEELVKLQGERVRGLKQQKASAELIEEEVAKLLKLKAQLGPDESKQKFVLKTPKGGGGSGGGGSSDLGPQMLRELQETNAALQDVRELLRQQVREITFLKNTVMECDAC
modifications: His tag; Made in Lab - HRS-COMP Fusion Protein
With B1 the “efferocytosis (spectral shift of pH sensitive dye)” value [1] was “profound inhibition of efferocytosis” and the “number of airway neutrophils accumulating in response to LPS” value [2] was “significantly reduced”.
